Experimental data from patent publication US20220227830A1, “QD DOSING OF GIP RECEPTOR AGONIST PEPTIDE COMPOUNDS AND USES THEREOF” (Takeda Pharmaceutical Company Limited, priority 2020, published 2022).
Starred links: 1 amine or outer side, 2 acyl side, 3 side chain; linkers in the order of their positions; H or OH if unused. Non-standard residues stand in square brackets, D forms with d. Groups on a side chain read outwards from the residue. No end group written: not given here. *: point of attachment. C16 diacid = O=C(O)CCCCCCCCCCCCCCC(=O)*; C15 diacid = O=C(O)CCCCCCCCCCCCCC(=O)*; γGlu = O=C(O)[C@H](CCC(=O)[*:2])N[*:1]; NMeY = CN[C@@H](Cc1ccc(O)cc1)C(=O)O; AEEA = NCCOCCOCC(=O)O; Aib = CC(C)(N)C(=O)O

T1: full-length human GIPR with an N-terminal FLAG tag (human, UniProt P48546 22-466)
T1 sequence (looked up): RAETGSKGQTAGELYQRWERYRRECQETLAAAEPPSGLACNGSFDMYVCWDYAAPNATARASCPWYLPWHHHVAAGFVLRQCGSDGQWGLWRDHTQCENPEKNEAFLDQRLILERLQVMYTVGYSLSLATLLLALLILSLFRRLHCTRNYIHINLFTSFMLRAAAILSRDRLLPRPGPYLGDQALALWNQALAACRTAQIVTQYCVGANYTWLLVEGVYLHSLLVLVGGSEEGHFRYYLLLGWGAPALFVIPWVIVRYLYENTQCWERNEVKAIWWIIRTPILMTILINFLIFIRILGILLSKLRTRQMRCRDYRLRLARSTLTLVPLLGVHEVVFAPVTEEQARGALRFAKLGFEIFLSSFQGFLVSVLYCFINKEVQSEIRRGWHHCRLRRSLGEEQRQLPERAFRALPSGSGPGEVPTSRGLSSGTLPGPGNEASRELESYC

B1: Compound 27 (peptide)
peptide: [NMeY][Aib]EGTFISDYSIALDR[Aib]AQ[Aib]K([AEEA-AEEA-γGlu-γGlu-C15 diacid])FVNWLLAQK-OH
modifications: N-terminus assumed
SMILES: CC[C@H](C)[C@H](NC(=O)[C@H](CO)NC(=O)[C@H](Cc1ccc(O)cc1)NC(=O)[C@H](CC(=O)O)NC(=O)[C@H](CO)NC(=O)[C@@H](NC(=O)[C@H](Cc1ccccc1)NC(=O)[C@@H](NC(=O)CNC(=O)[C@H](CCC(=O)O)NC(=O)C(C)(C)NC(=O)[C@H](Cc1ccc(O)cc1)NC)[C@@H](C)O)[C@@H](C)CC)C(=O)N[C@@H](C)C(=O)N[C@@H](CC(C)C)C(=O)N[C@@H](CC(=O)O)C(=O)N[C@@H](CCCNC(=N)N)C(=O)NC(C)(C)C(=O)N[C@@H](C)C(=O)N[C@@H](CCC(N)=O)C(=O)NC(C)(C)C(=O)N[C@@H](CCCCNC(=O)COCCOCCNC(=O)COCCOCCNC(=O)CC[C@H](NC(=O)CC[C@H](NC(=O)CCCCCCCCCCCCCC(=O)O)C(=O)O)C(=O)O)C(=O)N[C@@H](Cc1ccccc1)C(=O)N[C@H](C(=O)N[C@@H](CC(N)=O)C(=O)N[C@@H](Cc1c[nH]c2ccccc12)C(=O)N[C@@H](CC(C)C)C(=O)N[C@@H](CC(C)C)C(=O)N[C@@H](C)C(=O)N[C@@H](CCC(N)=O)C(=O)N[C@@H](CCCCN)C(=O)O)C(C)C
B2: Compound 26 (peptide)
peptide: [NMeY][Aib]EGTFISDYSIAK([AEEA-AEEA-γGlu-γGlu-C15 diacid])DR[Aib]AQ[Aib]NFVNWLLAQK-OH
modifications: N-terminus assumed
SMILES: CC[C@H](C)[C@H](NC(=O)[C@H](CO)NC(=O)[C@H](Cc1ccc(O)cc1)NC(=O)[C@H](CC(=O)O)NC(=O)[C@H](CO)NC(=O)[C@@H](NC(=O)[C@H](Cc1ccccc1)NC(=O)[C@@H](NC(=O)CNC(=O)[C@H](CCC(=O)O)NC(=O)C(C)(C)NC(=O)[C@H](Cc1ccc(O)cc1)NC)[C@@H](C)O)[C@@H](C)CC)C(=O)N[C@@H](C)C(=O)N[C@@H](CCCCNC(=O)COCCOCCNC(=O)COCCOCCNC(=O)CC[C@H](NC(=O)CC[C@H](NC(=O)CCCCCCCCCCCCCC(=O)O)C(=O)O)C(=O)O)C(=O)N[C@@H](CC(=O)O)C(=O)N[C@@H](CCCNC(=N)N)C(=O)NC(C)(C)C(=O)N[C@@H](C)C(=O)N[C@@H](CCC(N)=O)C(=O)NC(C)(C)C(=O)N[C@@H](CC(N)=O)C(=O)N[C@@H](Cc1ccccc1)C(=O)N[C@H](C(=O)N[C@@H](CC(N)=O)C(=O)N[C@@H](Cc1c[nH]c2ccccc12)C(=O)N[C@@H](CC(C)C)C(=O)N[C@@H](CC(C)C)C(=O)N[C@@H](C)C(=O)N[C@@H](CCC(N)=O)C(=O)N[C@@H](CCCCN)C(=O)O)C(C)C

Columns and labels:
[1] = biological target: full-length human GLP-1R with an N-terminal FLAG tag (human, UniProt P43220 24-463); experiment: cell-based or functional assay
[2] = biological target: T1, full-length human GIPR with an …; experiment: cell-based or functional assay

Row | Binder | Human GLP1R cAMP HEK293T EC50 [1] [nM] | Human GIPR cAMP, HEK293T EC50 [2] [nM]
1 | Me-Y[Aib]EGTFISDYSIAK([2OEG-γGlu-γGlu-C15 diacid])DR[Aib]AQ[Aib]NFVNWLLAQK-NH2 [Compound 22] | 631 | 0.0003
2 | Me-Y[Aib]EGTFISDYSIAKDR[Aib]AQ[Aib]DFVNWLLAQSPSSGAPPPS-OH (not fully specified (residues 1, 14)) [Compound 155] | 295 | 0.0003
3 | Me-Y[Aib]EGTFISDYSIAKDR[Aib]AQ[Aib]NFVNWLLAQRPSSGAPPPS-OH (not fully specified (residues 1, 14)) [Compound 147] | 16.6 | 0.0011
4 | Me-Y[Aib]EGTFISDYSIAK([AEEA-AEEA-γGlu-γGlu-C15 diacid])DR[Aib]AQ[Aib]NFVNWLLAQS (not fully specified (residue 1)) [Compound 16] | 263 | 0.0003
5 | [NMeY][Aib]EGTFISDYSIALDR[Aib]AQ[Aib]K([AEEA-AEEA-γGlu-γGlu-C15 diacid])FVNWLLAQR (not fully specified (N-terminus, C-terminus)) [Compound 15] | 155 | 0.0003
6 | Me-Y[Aib]EGTFISDYSIAKDR[Aib]AQ[Aib]DFVNWLLAQRPSSGAPPPS-OH (not fully specified (residues 1, 14)) [Compound 146] | 112 | 0.0005
7 | Me-Y[Aib]EGTFISDYSI[Aib]KDR[Aib]AQ[Aib]DFVNWLLAQSG-OH (not fully specified (residues 1, 14)) [Compound 141] | 64.6 | 0.0003
8 | B1 | 145 | 0.0006
9 | Me-Y[Aib]EGTFISDYSIAKDS[Aib]AQ[Aib]DFVNWLLAQRPSSGAPPPS-NH2 (not fully specified (residues 1, 14)) [Compound 153] | 389 | 0.0002
10 | Me-Y[Aib]EGTFISDYSI[Aib]KDR[Aib]AQ[Aib]DFVNWLLAQSPSSGAPPPS-OH (not fully specified (residues 1, 14)) [Compound 156] | 89.1 | 0.0002
11 | [NMeY][Aib]EGTFISDYSI[Aib]LDRK([AEEA-AEEA-γGlu-γGlu-C16 diacid])AQ[Aib]NFVNWLLAQRPSSGAPPPS-NH2 [Compound 145] | 912 | 0.0004
12 | Me-Y[Aib]EGTFISDYSIAKDR[Aib]AQ[Aib]DFVNWLLAQSPSSGAPPPG-OH (not fully specified (residues 1, 14)) [Compound 152] | 302 | 0.0003
13 | Me-Y[Aib]EGTFISDYSIAK([γGlu-γGlu-γGlu-C15 diacid])DR[Aib]AQ[Aib]NFVNWLLAQSPSSGAPPPS-NH2 [Compound 18] | 1000 | 0.0002
14 | Me-Y[Aib]EGTFISDYSI[Aib]KDR[Aib]AQ[Aib]DFVNWLLAQSPSSGAPPPS-NH2 (not fully specified (residues 1, 14)) [Compound 140] | 178 | 0.0004
15 | Me-Y[Aib]EGTFISDYSIAK([AEEA-γGlu-γGlu-γGlu-C15 diacid])DR[Aib]AQ[Aib]NFVNWLLAQK-NH2 [Compound 23] | 363 | 0.0004
16 | Me-Y[Aib]EGTFISDYSIALDR[Aib]AQ[Aib]K([AEEA-γGlu-γGlu-γGlu-C15 diacid])FVNWLLAQK-NH2 [Compound 24] | 16.9 | 0.0004
17 | Me-Y[Aib]EGTFISDYSIAKDS[Aib]AQ[Aib]NFVNWLLAQSPSSGAPPPS-NH2 (not fully specified (residues 1, 14)) [Compound 154] | 288 | 0.0003
18 | Me-Y[Aib]EGTFISDYSIAKDR[Aib]AQ[Aib]NFVNWLLAQSPSSGAPPPS-OH (not fully specified (residues 1, 14)) [Compound 150] | 30.2 | 0.0003
19 | B2 | 1000 | 0.0003
20 | Me-Y[Aib]EGTFISDYSIALDR[Aib]AQ[Aib]K([AEEA-AEEA-γGlu-γGlu-C15 diacid])FVNWLLAQSG-OH [Compound 149] | 25.7 | 0.0007
21 | Me-Y[Aib]EGTFISDYSIAKDR[Aib]AQ[Aib]DFVNWLLAQSPSSGAPPPS-NH2 (not fully specified (residues 1, 14)) [Compound 151] | 145 | 0.0004
